Test results reported in publication PMC8219041, “A transcriptional hub integrating gibberellin–brassinosteroid signals to promote seed germination in Arabidopsis”.

T1: GST-BEE2 (Arabidopsis thaliana, UniProt Q93VJ4 1-304)
T1 sequence: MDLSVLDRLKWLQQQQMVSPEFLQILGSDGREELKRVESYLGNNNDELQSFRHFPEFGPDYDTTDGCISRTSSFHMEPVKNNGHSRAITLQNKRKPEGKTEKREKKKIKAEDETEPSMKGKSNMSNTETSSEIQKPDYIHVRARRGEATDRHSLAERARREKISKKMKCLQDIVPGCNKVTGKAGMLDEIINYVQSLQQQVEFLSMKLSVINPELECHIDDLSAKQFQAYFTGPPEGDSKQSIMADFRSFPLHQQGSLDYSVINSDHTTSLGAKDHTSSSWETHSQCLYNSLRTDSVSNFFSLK

T2: GST-HBI1 (Arabidopsis thaliana, UniProt Q9ZPW3 1-337)
T2 sequence: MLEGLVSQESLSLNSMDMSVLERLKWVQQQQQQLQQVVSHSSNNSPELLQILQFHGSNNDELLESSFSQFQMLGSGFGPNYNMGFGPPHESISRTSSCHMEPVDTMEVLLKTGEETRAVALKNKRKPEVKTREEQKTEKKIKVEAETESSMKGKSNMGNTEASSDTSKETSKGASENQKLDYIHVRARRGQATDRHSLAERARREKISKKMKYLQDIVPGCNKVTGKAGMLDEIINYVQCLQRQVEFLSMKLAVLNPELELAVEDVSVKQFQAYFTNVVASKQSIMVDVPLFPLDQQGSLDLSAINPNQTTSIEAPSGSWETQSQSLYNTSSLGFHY

B1: GASA6 promoter Probe 2 (dsDNA)
DNA 1: GTCTCCCATGTGAGTGCACATGGAGTTATG
DNA 2: CATAACTCCATGTGCACTCACATGGGAGAC
B2: GASA6 promoter Probe 1 (dsDNA)
DNA 1: CAATTTTTAATCACAAATGCTATTTTATTGGACGACC
DNA 2: GGTCGTCCAATAAAATAGCATTTGTGATTAAAAATTG

Columns and labels:
GST-BEE2 = target: T1, GST-BEE2; test: EMSA; 1000x cold probe eliminated the shift; 10 mM Tris pH 7.5, 50 mM KCl, 5 mM MgCl2, 1 mM DTT, 2.5% glycerol, 0.5% NP-40, 50 ng poly(dI-dC), 25 fmol probe in 20 ul, room temperature, 45 min; 6% native PAGE; conditions: protein: recombinant; tags: GST (N-term, pGEX4T1); chain copies: 2; label: 5' biotin; blunt
GST-HBI1 = target: T2, GST-HBI1; test: as above; conditions: protein: recombinant; tags: GST (N-term, pGEX4T1); chain copies: 2; label: 5' biotin; blunt

Binder	binding result (GST-BEE2)	binding result (GST-HBI1)
B1	binds	binds
B2	binds	binds
